# Values quoted from earlier work in PMC3433420.
# Read-outs that look alike come from different tables or passages of the source.
# Experiments:
# Conditions in all cases: cited from earlier work
# ITK (Homo sapiens) = ITK (Homo sapiens) (UniProt Q08881)
# GRB14 (Homo sapiens) = GRB14 (Homo sapiens) (UniProt Q14449)
# SLA (Homo sapiens) [1] = biological target: SLA (Homo sapiens) (UniProt Q13239)
# TNS3 (Homo sapiens) = TNS3 (Homo sapiens) (UniProt Q68CZ2)
# SYK-C (Homo sapiens) = SYK-C (Homo sapiens) (UniProt P43405)
# PIK3R1-N (Homo sapiens) = PIK3R1-N (Homo sapiens) (UniProt P27986)
# PIK3R1-NC (Homo sapiens) = PIK3R1-NC (Homo sapiens) (UniProt P27986)
# PLCG2-NC (Homo sapiens) = PLCG2-NC (Homo sapiens) (UniProt P16885)
# SH2B (Homo sapiens) = SH2B (Homo sapiens) (UniProt Q9NRF2)
# FGR (Homo sapiens) = FGR (Homo sapiens) (UniProt P09769)
# RASA1-N (Homo sapiens) [2] = biological target: RASA1-N (Homo sapiens) (UniProt P20936)
# PLCG2-N (Homo sapiens) = PLCG2-N (Homo sapiens) (UniProt P16885)
# PIK3R2-N (Homo sapiens) = PIK3R2-N (Homo sapiens) (UniProt O00459)
# CRK (Homo sapiens) = CRK (Homo sapiens) (UniProt P46108)
# PIK3R2-NC (Homo sapiens) = PIK3R2-NC (Homo sapiens) (UniProt O00459)
# BLK (Homo sapiens) = BLK (Homo sapiens) (UniProt P51451)
# PIK3R3-NC (Homo sapiens) [3] = biological target: PIK3R3-NC (Homo sapiens) (UniProt Q92569)
# SHC2-PTB (Homo sapiens) = SHC2-PTB (Homo sapiens) (UniProt P98077)
# VAV3 (Homo sapiens) = VAV3 (Homo sapiens) (UniProt Q9UKW4)
# SRC (Homo sapiens) = SRC (Homo sapiens) (UniProt P12931)
# SH2B3 (Homo sapiens) = SH2B3 (Homo sapiens) (UniProt Q9UQQ2)
# NCK2 (Homo sapiens) [4] = biological target: NCK2 (Homo sapiens) (UniProt O43639)
# SH2D3C (Homo sapiens) = SH2D3C (Homo sapiens) (UniProt Q8N5H7)
# SYK-NC (Homo sapiens) [5] = biological target: SYK-NC (Homo sapiens) (UniProt P43405)
# VAV2 (Homo sapiens) [6] = biological target: VAV2 (Homo sapiens) (UniProt P52735)
# ABL2 (Homo sapiens) [7] = biological target: ABL2 (Homo sapiens) (UniProt P42684)
# GRB7 (Homo sapiens) [8] = biological target: GRB7 (Homo sapiens) (UniProt Q14451)
# YES1 (Homo sapiens) = YES1 (Homo sapiens) (UniProt P07947)
# LYN (Homo sapiens) = LYN (Homo sapiens) (UniProt P07948)
# SHB (Homo sapiens) = SHB (Homo sapiens) (UniProt Q15464)
# SUPT6H (Homo sapiens) = SUPT6H (Homo sapiens) (UniProt Q7KZ85)
# BCAR3 (Homo sapiens) = BCAR3 (Homo sapiens) (UniProt O75815)
# GRB10 (Homo sapiens) = GRB10 (Homo sapiens) (UniProt Q13322)
# TNS4 (Homo sapiens) [9] = biological target: TNS4 (Homo sapiens) (UniProt Q8IZW8)
# RASA1-NC (Homo sapiens) [10] = biological target: RASA1-NC (Homo sapiens) (UniProt P20936)
# SHC1-PTB (Homo sapiens) [11] = biological target: SHC1-PTB (Homo sapiens) (UniProt P29353)
# ABL2 (Homo sapiens) [12] = biological target: ABL2 (Homo sapiens) (UniProt P42684); remark: listed apart in the source
# PLCG1-C (Homo sapiens) = PLCG1-C (Homo sapiens) (UniProt P19174)
# VAV2 (Homo sapiens) [13] = biological target: VAV2 (Homo sapiens) (UniProt P52735); remark: listed apart in the source
# PLCG1-NC (Homo sapiens) = PLCG1-NC (Homo sapiens) (UniProt P19174)
# GRB7 (Homo sapiens) [14] = biological target: GRB7 (Homo sapiens) (UniProt Q14451); remark: listed apart in the source
# SHC1-PTB (Homo sapiens) [15] = biological target: SHC1-PTB (Homo sapiens) (UniProt P29353); remark: listed apart in the source
# RASA1-N (Homo sapiens) [16] = biological target: RASA1-N (Homo sapiens) (UniProt P20936); remark: listed apart in the source
# SYK-NC (Homo sapiens) [17] = biological target: SYK-NC (Homo sapiens) (UniProt P43405); remark: listed apart in the source
# SLA (Homo sapiens) [18] = biological target: SLA (Homo sapiens) (UniProt Q13239); remark: listed apart in the source
# VAV2 (Homo sapiens) [19] = biological target: VAV2 (Homo sapiens) (UniProt P52735); remark: listed apart in the source
# PIK3R3-NC (Homo sapiens) [20] = biological target: PIK3R3-NC (Homo sapiens) (UniProt Q92569); remark: listed apart in the source
# HSH2D (Homo sapiens) = HSH2D (Homo sapiens) (UniProt Q96JZ2)
# MATK (Homo sapiens) = MATK (Homo sapiens) (UniProt P42679)
# RASA1-NC (Homo sapiens) [21] = biological target: RASA1-NC (Homo sapiens) (UniProt P20936); remark: listed apart in the source
# ABL2 (Homo sapiens) [22] = biological target: ABL2 (Homo sapiens) (UniProt P42684); remark: listed apart in the source
# SHC1-PTB (Homo sapiens) [23] = biological target: SHC1-PTB (Homo sapiens) (UniProt P29353); remark: listed apart in the source
# TNS4 (Homo sapiens) [24] = biological target: TNS4 (Homo sapiens) (UniProt Q8IZW8); remark: listed apart in the source
# NCK2 (Homo sapiens) [25] = biological target: NCK2 (Homo sapiens) (UniProt O43639); remark: listed apart in the source
# SYK-NC (Homo sapiens) [26] = biological target: SYK-NC (Homo sapiens) (UniProt P43405); remark: listed apart in the source
# GRB7 (Homo sapiens) [27] = biological target: GRB7 (Homo sapiens) (UniProt Q14451); remark: listed apart in the source
# TENC1 (Homo sapiens) = TENC1 (Homo sapiens) (UniProt Q63HR2)
# Chain of ABL2 (Homo sapiens) (P42684 168-268): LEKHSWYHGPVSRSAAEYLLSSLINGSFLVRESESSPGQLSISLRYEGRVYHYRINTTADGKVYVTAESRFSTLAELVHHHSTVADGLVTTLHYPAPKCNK
# Chain of GRB7 (Homo sapiens) (Q14451 426-532): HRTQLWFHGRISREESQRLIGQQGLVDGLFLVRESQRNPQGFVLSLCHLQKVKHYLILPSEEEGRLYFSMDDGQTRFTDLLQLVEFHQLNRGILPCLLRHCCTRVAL
# Chain of VAV2 (Homo sapiens) (P52735 668-772): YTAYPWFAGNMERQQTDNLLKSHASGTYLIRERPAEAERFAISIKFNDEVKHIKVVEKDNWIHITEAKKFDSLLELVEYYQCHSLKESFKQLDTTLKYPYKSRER
# Chain of SHC1-PTB (Homo sapiens) (P29353 483-583): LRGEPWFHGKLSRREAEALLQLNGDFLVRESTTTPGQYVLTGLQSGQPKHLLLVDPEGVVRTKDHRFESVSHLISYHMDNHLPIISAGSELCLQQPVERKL
# Chain of TNS4 (Homo sapiens) (Q8IZW8 444-561): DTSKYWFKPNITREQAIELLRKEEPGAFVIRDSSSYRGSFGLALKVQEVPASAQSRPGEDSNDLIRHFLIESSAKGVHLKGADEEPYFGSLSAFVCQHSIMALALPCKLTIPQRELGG
# Chain of NCK2 (Homo sapiens) (O43639 280-380): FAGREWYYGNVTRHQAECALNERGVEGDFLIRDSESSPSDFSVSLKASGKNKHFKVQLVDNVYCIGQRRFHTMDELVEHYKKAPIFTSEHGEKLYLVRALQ
# Chain of RASA1-N (Homo sapiens) (P20936 176-446): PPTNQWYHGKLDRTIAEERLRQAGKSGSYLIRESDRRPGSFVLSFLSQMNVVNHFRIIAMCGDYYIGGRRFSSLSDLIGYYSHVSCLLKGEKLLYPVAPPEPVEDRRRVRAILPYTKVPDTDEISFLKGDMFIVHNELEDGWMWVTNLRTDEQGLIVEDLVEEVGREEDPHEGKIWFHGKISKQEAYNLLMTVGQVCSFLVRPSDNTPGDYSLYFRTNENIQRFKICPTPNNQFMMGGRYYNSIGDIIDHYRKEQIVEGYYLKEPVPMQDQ
# Chain of RASA1-NC (Homo sapiens) (P20936 176-446): as above
# Chain of SLA (Homo sapiens) (Q13239 79-180): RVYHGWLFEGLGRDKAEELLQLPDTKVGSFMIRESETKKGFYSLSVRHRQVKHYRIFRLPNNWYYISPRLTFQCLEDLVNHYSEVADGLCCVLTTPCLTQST
# Chain of GRB14 (Homo sapiens) (Q14449 434-540): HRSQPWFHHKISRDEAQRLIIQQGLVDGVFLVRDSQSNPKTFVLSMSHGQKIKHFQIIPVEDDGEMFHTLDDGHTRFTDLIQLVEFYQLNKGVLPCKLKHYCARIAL
# Chain of SHC2-PTB (Homo sapiens) (P98077 482-582): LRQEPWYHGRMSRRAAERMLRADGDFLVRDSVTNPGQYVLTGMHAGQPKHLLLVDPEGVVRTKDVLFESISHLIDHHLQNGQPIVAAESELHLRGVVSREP
# Chain of GRB10 (Homo sapiens) (Q13322 488-579): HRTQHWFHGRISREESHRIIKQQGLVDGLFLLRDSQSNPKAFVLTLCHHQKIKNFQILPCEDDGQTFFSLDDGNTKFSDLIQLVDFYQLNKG
# Chain of PLCG2-NC (Homo sapiens) (P16885 527-740): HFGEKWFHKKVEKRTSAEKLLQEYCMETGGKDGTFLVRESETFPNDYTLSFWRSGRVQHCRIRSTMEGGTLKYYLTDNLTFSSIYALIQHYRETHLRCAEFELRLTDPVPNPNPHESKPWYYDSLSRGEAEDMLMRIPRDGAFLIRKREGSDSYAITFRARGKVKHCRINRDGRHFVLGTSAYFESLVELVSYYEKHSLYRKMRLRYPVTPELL
# Chain of PLCG2-N (Homo sapiens) (P16885 527-740): as above
# Chain of PIK3R1-N (Homo sapiens) (P27986 328-723): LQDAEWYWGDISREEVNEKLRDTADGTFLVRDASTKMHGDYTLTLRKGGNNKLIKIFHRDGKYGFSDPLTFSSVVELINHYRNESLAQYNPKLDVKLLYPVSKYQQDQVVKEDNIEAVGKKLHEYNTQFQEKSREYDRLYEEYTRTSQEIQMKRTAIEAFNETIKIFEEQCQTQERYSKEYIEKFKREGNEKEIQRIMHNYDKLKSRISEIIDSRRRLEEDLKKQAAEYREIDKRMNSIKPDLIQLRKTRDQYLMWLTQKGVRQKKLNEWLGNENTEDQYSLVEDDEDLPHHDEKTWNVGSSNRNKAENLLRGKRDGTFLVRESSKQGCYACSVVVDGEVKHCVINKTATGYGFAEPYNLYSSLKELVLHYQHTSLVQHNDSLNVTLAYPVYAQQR
# Chain of PIK3R1-NC (Homo sapiens) (P27986 328-723): as above
# Chain of PIK3R2-NC (Homo sapiens) (O00459 325-721): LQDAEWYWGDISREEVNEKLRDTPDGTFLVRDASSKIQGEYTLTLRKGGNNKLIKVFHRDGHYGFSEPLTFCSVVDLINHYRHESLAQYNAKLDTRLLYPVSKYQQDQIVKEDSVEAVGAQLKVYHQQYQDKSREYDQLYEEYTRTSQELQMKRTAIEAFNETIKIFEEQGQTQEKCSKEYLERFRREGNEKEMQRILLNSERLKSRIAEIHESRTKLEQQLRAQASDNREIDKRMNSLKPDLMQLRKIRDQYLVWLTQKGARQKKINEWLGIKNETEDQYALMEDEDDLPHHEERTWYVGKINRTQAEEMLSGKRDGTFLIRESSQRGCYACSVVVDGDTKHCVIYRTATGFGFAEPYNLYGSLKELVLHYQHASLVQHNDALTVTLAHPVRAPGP
# Chain of PIK3R2-N (Homo sapiens) (O00459 325-721): as above
# Chain of TNS3 (Homo sapiens) (Q68CZ2 1167-1287): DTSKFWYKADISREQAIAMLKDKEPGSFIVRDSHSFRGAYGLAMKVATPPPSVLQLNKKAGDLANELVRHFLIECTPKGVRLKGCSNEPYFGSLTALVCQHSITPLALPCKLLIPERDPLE
# Chain of SH2D3C (Homo sapiens) (Q8N5H7 215-324): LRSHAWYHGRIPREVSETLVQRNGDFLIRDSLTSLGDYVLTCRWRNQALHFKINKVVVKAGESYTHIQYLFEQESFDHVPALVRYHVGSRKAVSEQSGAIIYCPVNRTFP
# Chain of SHB (Homo sapiens) (Q15464 405-509): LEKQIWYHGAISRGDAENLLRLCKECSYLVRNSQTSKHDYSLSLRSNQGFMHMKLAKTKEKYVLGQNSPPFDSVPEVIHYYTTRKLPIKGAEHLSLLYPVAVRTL
# Chain of HSH2D (Homo sapiens) (Q96JZ2 29-130): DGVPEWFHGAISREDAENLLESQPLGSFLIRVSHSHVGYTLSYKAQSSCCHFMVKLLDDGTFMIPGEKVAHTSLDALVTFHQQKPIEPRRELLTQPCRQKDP
substance,measurement,setting,value
…pYQQDFFPKd,apparent Kd (screen),ITK (Homo sapiens),1410 nM
same,apparent Kd (screen),GRB14 (Homo sapiens),1250 nM
same,apparent Kd (screen),SLA (Homo sapiens) [1],2000 nM
same,apparent Kd (screen),TNS3 (Homo sapiens),736 nM
same,apparent Kd (screen),SYK-C (Homo sapiens),869 nM
same,apparent Kd (screen),PIK3R1-N (Homo sapiens),404 nM
same,apparent Kd (screen),PIK3R1-NC (Homo sapiens),547 nM
same,apparent Kd (screen),PLCG2-NC (Homo sapiens),674 nM
same,apparent Kd (screen),SH2B (Homo sapiens),1820 nM
same,apparent Kd (screen),FGR (Homo sapiens),546 nM
same,apparent Kd (screen),RASA1-N (Homo sapiens) [2],1140 nM
same,apparent Kd (screen),PLCG2-N (Homo sapiens),841 nM
same,apparent Kd (screen),PIK3R2-N (Homo sapiens),390 nM
same,apparent Kd (screen),CRK (Homo sapiens),408 nM
same,apparent Kd (screen),PIK3R2-NC (Homo sapiens),322 nM
same,apparent Kd (screen),BLK (Homo sapiens),751 nM
same,apparent Kd (screen),PIK3R3-NC (Homo sapiens) [3],850 nM
same,apparent Kd (screen),SHC2-PTB (Homo sapiens),1310 nM
same,apparent Kd (screen),VAV3 (Homo sapiens),2000 nM
same,apparent Kd (screen),SRC (Homo sapiens),466 nM
same,apparent Kd (screen),SH2B3 (Homo sapiens),1600 nM
same,apparent Kd (screen),NCK2 (Homo sapiens) [4],380 nM
same,apparent Kd (screen),SH2D3C (Homo sapiens),1910 nM
same,apparent Kd (screen),SYK-NC (Homo sapiens) [5],1280 nM
same,apparent Kd (screen),VAV2 (Homo sapiens) [6],216 nM
same,apparent Kd (screen),ABL2 (Homo sapiens) [7],490 nM
same,apparent Kd (screen),GRB7 (Homo sapiens) [8],2000 nM
same,apparent Kd (screen),YES1 (Homo sapiens),98 nM
same,apparent Kd (screen),LYN (Homo sapiens),1590 nM
same,apparent Kd (screen),SHB (Homo sapiens),1790 nM
same,apparent Kd (screen),SUPT6H (Homo sapiens),1030 nM
same,apparent Kd (screen),BCAR3 (Homo sapiens),300 nM
same,apparent Kd (screen),GRB10 (Homo sapiens),1290 nM
same,apparent Kd (screen),TNS4 (Homo sapiens) [9],334 nM
same,apparent Kd (screen),RASA1-NC (Homo sapiens) [10],1170 nM
same,apparent Kd (screen),SHC1-PTB (Homo sapiens) [11],40 nM
…pYLQEYSTKd,apparent Kd (screen),ABL2 (Homo sapiens) [12],883 nM
same,apparent Kd (screen),PLCG1-C (Homo sapiens),2000 nM
same,apparent Kd (screen),VAV2 (Homo sapiens) [13],769 nM
same,apparent Kd (screen),PLCG1-NC (Homo sapiens),2000 nM
same,apparent Kd (screen),GRB7 (Homo sapiens) [14],2000 nM
same,apparent Kd (screen),SHC1-PTB (Homo sapiens) [15],2000 nM
same,apparent Kd (screen),RASA1-N (Homo sapiens) [16],2000 nM
same,apparent Kd (screen),SYK-NC (Homo sapiens) [17],2000 nM
same,apparent Kd (screen),SLA (Homo sapiens) [18],2000 nM
same,apparent Kd (screen),VAV2 (Homo sapiens) [19],2000 nM
same,apparent Kd (screen),PIK3R3-NC (Homo sapiens) [20],2000 nM
…pYWHSRLFP,apparent Kd (screen),HSH2D (Homo sapiens),1700 nM
same,apparent Kd (screen),MATK (Homo sapiens),1870 nM
same,apparent Kd (screen),RASA1-NC (Homo sapiens) [21],1920 nM
same,apparent Kd (screen),ABL2 (Homo sapiens) [22],604 nM
same,apparent Kd (screen),SHC1-PTB (Homo sapiens) [23],217 nM
same,apparent Kd (screen),TNS4 (Homo sapiens) [24],850 nM
same,apparent Kd (screen),NCK2 (Homo sapiens) [25],1900 nM
same,apparent Kd (screen),SYK-NC (Homo sapiens) [26],1980 nM
same,apparent Kd (screen),GRB7 (Homo sapiens) [27],1690 nM
same,apparent Kd (screen),TENC1 (Homo sapiens),1250 nM
